Data from the supplement of paper PMC12042874.
± gives the uncertainty stated by the source.

Assay: amyloid nucleation score (Sup35N fusion, yeast selection) (log enrichment); library NNK2; higher = more nucleation; inactive = no reads after selection
In short: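 Nucleation score: DiMSum log enrichment of output over input reads, centred on the mode score of non-aggregating sequences. Only sequences with at least 100 input reads were kept. Reads came from Illumina sequencing of plasmid inserts before and after 7 days of growth at 30°C without adenine and uracil, in psi-negative yeast expressing Sup35N fused to peptides of 20 random codons after 24 hours of induction with 100 μM copper sulfate.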

Row | Substance | amyloid nucleation score
1 | NIGRYIIQVGSNGEANWHRV | inactive
2 | VKFFFTILVPFLIFVS | inactive
3 | MDWIPLMPTYGIWLPC | 0.045 ± 0.41
4 | FLKYSDKQHAVNVGLKVTAQ | 0.094 ± 0.74
5 | TVFSYSWQFYGMHSISDYMI | inactive
6 | RRMVMVSANVSLIEQHYCRN | 5.552 ± 0.042
7 | NTLSRYHFNGVRVYCEMTAL | inactive
8 | AFPTKCNVRSMSMHRLLLLC | inactive
9 | DNCVIRALQRRNVLVV | -1.18 ± 0.39
10 | VYGFP | 7.112 ± 0.048
11 | LYSDGVIDMRRLCKVL | -0.841 ± 0.62
12 | TRASYFCQSTANYSVSRSNM | 1.8 ± 0.3
13 | MRWIFGHAGPSFSCILKKRP | inactive
14 | SVEMRTNLTAGWRILIRWSS | 1.2 ± 0.14
15 | CFLCMQSLS | 1.34 ± 0.33
16 | VLFEFTC | 4.33 ± 0.05
17 | VSLIVYKGHKRGWVYRVSRR | 0.42 ± 0.65
18 | MTYRSLPEYTDLLWVTYVER | 0.369 ± 0.46
19 | YMLLRSYVFTKLLRLHCYRN | inactive
20 | AGIFQNSRRNPYRVYMMSVY | 3.31 ± 0.06
21 | LLPRCDGGVLVHLNDKSYKL | 1.32 ± 0.39
22 | KDNYNLNTGSSTISGHRWFA | inactive
23 | FYFWVSDYQLGDMVNIMNLS | -0.184 ± 1.1
24 | VNFGI | -0.948 ± 0.64

Row | Substance | amyloid nucleation score
25 | IWMRVVC | 0.337 ± 0.8
26 | RRWEL | 0.687 ± 0.34
27 | CCLTPYAIICLLARLNHTKV | -0.273 ± 0.61
28 | TCLSQQCTEIEWIKFTPMSR | 4.31 ± 0.056
29 | FAMDSIKRFFKIIIFSRYT | -1.34 ± 1.1
30 | WLKVLG | 4.571 ± 0.028
31 | VVSVFSSYVRQCCYGGWEV | 6.67 ± 0.077
32 | AFPLRTVISGN | 0.484 ± 0.8
33 | YYTLWVTLTRLTNC | -0.288 ± 0.5
34 | TSGQHD | -0.133 ± 0.61
35 | QDLVGGCQLSHHHCNLSCGF | inactive
36 | SMSIWSFYIAP | 4.59 ± 0.066
37 | DLYPENFASMRFRVTTSLVF | inactive
38 | DWCPTCIWRICSHVTQSWSS | 6.325 ± 0.055
39 | LFQSLNLISINSVVPYEPVT | 2.43 ± 0.092
40 | LGHHIVFAVTPKWTYDDDIK | 0.679 ± 0.62
41 | CHLKFNANVKWLGSLGKLEY | 4.74 ± 0.069
42 | PGLLQGLKSGWSKTYKLLTR | 0.808 ± 0.8
43 | SLSRLVLECNGKSVRHEKM | 0.393 ± 0.32
44 | YGPLTIDGFRHAYV | 0.95 ± 0.29
45 | RKGSNDYPFWPAVVWHPLPA | 0.753 ± 0.4
46 | DGTNFDR | -0.92 ± 0.37
47 | FAGNAHGRRTG | 1.3 ± 0.31
48 | YISFVGW | -2.23 ± 0.62

Row | Substance | amyloid nucleation score
49 | RTALKYPVSYSRFGSFADES | -0.73 ± 0.41
50 | KCKRLVSKNIRL | -0.342 ± 1
51 | YIPLVVLHFSVRVWELSYWS | 0.115 ± 1
52 | KWNVFGDDGMREARLNLSGV | -0.69 ± 0.74
53 | IMTHLVSTR | 1.5 ± 0.3
54 | SKSEIHCYLMMGRHLFG | 4.5 ± 0.11
55 | VWMDIRSYLVGGLLTAVPRD | 0.481 ± 0.2
56 | NLMVVRRSDHSRPGNCHWQA | 0.381 ± 0.3
57 | TWDSRYGVACLV | -0.325 ± 0.33
58 | RTLPFWWLNLFWFLNNMDTF | -1.8 ± 1.1
59 | LGNRLSKIAVGTSFKLFKK | 0.138 ± 1.1
60 | VWWFIYVLGVVSTDAKVSPS | inactive
61 | LILALVPLLCWMVNGW | -0.567 ± 1.1
62 | NNVRMYLSFRAIVY | -1.19 ± 0.76
63 | NSTLGGVFACYYFALSHAAE | 6.41 ± 0.059
64 | RGNMESLWQNRKGRCSLNHG | inactive
65 | RLYCQRFPRFENITIWELLL | -1.71 ± 0.54
66 | RQARRRRTSRQHEKGV | 1.49 ± 0.16
67 | MYEFQPRLDHRLFRYICMNV | -0.018 ± 1.1
68 | LGITITARAIIE | -0.898 ± 1.1
69 | YSEQNKWSRFVTDGGNLV | -0.802 ± 0.61
70 | RPNSSIVLLYPFKMRPFES | inactive
